From publication doi:10.1101/2024.10.29.620886 come the findings set out here.

Experiment [1] addresses CR57 canonical diabody with a five amino acid linker 'GGGGS' between the VH and VL domains (human). In words: SEC.
The target in experiment [2] is Imdevimab diabody (human). The experiment can be described thus: SEC. (In gel filtration, larger molecules generally elute earlier.)

What is called stoichiometry N is the number of molecules, sites or subunits per partner or assembly.

“CR57 canonical diabody with a five amino acid linker 'GGGGS' between the VH and VL domains” came in with a stoichiometry N in experiment [1] of 2.

The substance Imdevimab diabody returned a stoichiometry N in experiment [2] of 2.
